Data published in patent US20080102072A1.

Legend:
[1] = molecular target: human IFNAR1, membrane receptor on cells (U266 human myeloma cells; Hela and A549 cells in the functional assays) (human) (UniProt P17181); assay: flow cytometry on U266 cells, fluoresceinated mAb 1 µg/100 µl, no soluble hIFNAR1
[2] = molecular target: human IFNAR1, membrane receptor on cells (U266 human myeloma cells; Hela and A549 cells in the functional assays) (human) (UniProt P17181); assay: flow cytometry on U266 cells, F-mAb preincubated with competitor: 10 µg soluble wild type hIFNAR1-IgG
[3] = molecular target: human IFNAR1, membrane receptor on cells (U266 human myeloma cells; Hela and A549 cells in the functional assays) (human) (UniProt P17181); assay: flow cytometry on U266 cells, F-mAb preincubated with competitor: 10 µg soluble hIFNAR1-IgG Mutant #8 (291-298)
[4] = molecular target: IFNAR1-IgG single alanine mutant E69A (human); assay: capture ELISA, single alanine mutant IFNAR1-IgG captured by goat anti-hIgG-Fc; OD as % of wild type IFNAR1-IgG
[5] = molecular target: IFNAR1-IgG single alanine mutant K294A (human); assay: as above
[6] = molecular target: IFNAR1-IgG single alanine mutant K249A (human); assay: as above
[7] = molecular target: IFNAR1-IgG single alanine mutant H244A (human); assay: as above
[8] = molecular target: IFNAR1-IgG single alanine mutant K247A (human); assay: as above
[9] = molecular target: IFNAR1-IgG single alanine mutant E292A (human); assay: as above
[10] = molecular target: IFNAR1-IgG single alanine mutant E70A (human); assay: as above
[11] = molecular target: IFNAR1-IgG single alanine mutant E298A (human); assay: as above
[12] = molecular target: IFNAR1-IgG single alanine mutant E291A (human); assay: as above
[13] = molecular target: IFNAR1-IgG single alanine mutant D296A (human); assay: as above
[14] = molecular target: IFNAR1-IgG single alanine mutant R74A (human); assay: as above
[15] = molecular target: IFNAR1-IgG single alanine mutant K72A (human); assay: as above
[16] = molecular target: IFNAR1-IgG multiple alanine mutant 2, residues 69-74 (EEIKLR to AAIALA) (human); assay: capture ELISA, mutant IFNAR1-IgG captured by goat anti-hIgG-Fc, mAb 10 µg/ml; OD as % of wild type IFNAR1-IgG
[17] = molecular target: IFNAR1-IgG multiple alanine mutant 1, residues 19-25 (RWNRSDE to AWNASAA) (human); assay: as above
[18] = molecular target: IFNAR1-IgG multiple alanine mutant 10, residues 383-388 (DEKLNK to AAALNA) (human); assay: as above
[19] = molecular target: IFNAR1-IgG multiple alanine mutant 9, residues 352-359 (ERKIIEKK to AAAIIAAA) (human); assay: as above
[20] = molecular target: IFNAR1-IgG multiple alanine mutant 7, residues 244-249 (HLYKWK to ALYAWA) (human); assay: as above
[21] = molecular target: IFNAR1-IgG multiple alanine mutant 6, residues 157-162 (RHKIYK to AAAIYA) (human); assay: as above
[22] = molecular target: IFNAR1-IgG multiple alanine mutant 8, residues 291-298 (EEIKFDTE to AAIAFATA) (human); assay: as above
[23] = molecular target: IFNAR1-IgG multiple alanine mutant 4, residues 103-111 (… to …) (human); assay: as above
[24] = molecular target: IFNAR1-IgG multiple alanine mutant 5, residues 148-152 (EERIE to AAAIA) (human); assay: as above
[25] = molecular target: IFNAR1-IgG multiple alanine mutant 3, residues 76-80 (RAEKE to AAAAA) (human); assay: as above
[26] = molecular target: hIFNAR1 ECD-IgG fusion protein (immunoadhesin, pRK5 hIFNAR1-IgG clone 53.65), wild type (human); assay: competitive radioimmunoprecipitation with 125I-hIFNAR1-IgG and unlabeled hIFNAR1-IgG, Scatchard analysis
[27] = molecular target: human IFNAR1, membrane receptor on cells (U266 human myeloma cells; Hela and A549 cells in the functional assays) (human) (UniProt P17181); assay: flow cytometry on U266 cells, F-mAb preincubated with competitor: 10 µg soluble hIFNAR1-IgG Mutant #7 (244-249)
[28] = molecular target: human IFNAR1, membrane receptor on cells (U266 human myeloma cells; Hela and A549 cells in the functional assays) (human) (UniProt P17181); assay: cell-based or functional assay

IFNAR1-IgG multiple alanine mutant 9, residues 352-359 (ERKIIEKK to AAAIIAAA) (human), sequence (chain, as listed by the source mutant limits assumed): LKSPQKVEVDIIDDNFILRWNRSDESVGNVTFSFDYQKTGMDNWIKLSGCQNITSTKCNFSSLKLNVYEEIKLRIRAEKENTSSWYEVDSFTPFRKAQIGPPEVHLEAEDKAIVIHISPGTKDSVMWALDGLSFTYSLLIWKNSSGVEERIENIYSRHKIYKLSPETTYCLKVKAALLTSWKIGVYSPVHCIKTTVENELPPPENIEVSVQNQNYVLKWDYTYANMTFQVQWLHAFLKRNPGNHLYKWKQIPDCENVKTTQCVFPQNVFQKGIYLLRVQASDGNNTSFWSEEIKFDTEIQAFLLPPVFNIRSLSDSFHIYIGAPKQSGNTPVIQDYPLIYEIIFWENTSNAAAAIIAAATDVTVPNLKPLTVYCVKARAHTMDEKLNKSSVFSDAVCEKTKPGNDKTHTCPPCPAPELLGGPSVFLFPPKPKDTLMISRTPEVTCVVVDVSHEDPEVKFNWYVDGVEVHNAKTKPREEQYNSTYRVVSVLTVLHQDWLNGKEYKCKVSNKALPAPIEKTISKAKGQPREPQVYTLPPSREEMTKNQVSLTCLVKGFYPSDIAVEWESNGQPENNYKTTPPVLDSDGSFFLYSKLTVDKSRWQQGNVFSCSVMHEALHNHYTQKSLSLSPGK
UniProt P17181, sequence (P17181 28-557): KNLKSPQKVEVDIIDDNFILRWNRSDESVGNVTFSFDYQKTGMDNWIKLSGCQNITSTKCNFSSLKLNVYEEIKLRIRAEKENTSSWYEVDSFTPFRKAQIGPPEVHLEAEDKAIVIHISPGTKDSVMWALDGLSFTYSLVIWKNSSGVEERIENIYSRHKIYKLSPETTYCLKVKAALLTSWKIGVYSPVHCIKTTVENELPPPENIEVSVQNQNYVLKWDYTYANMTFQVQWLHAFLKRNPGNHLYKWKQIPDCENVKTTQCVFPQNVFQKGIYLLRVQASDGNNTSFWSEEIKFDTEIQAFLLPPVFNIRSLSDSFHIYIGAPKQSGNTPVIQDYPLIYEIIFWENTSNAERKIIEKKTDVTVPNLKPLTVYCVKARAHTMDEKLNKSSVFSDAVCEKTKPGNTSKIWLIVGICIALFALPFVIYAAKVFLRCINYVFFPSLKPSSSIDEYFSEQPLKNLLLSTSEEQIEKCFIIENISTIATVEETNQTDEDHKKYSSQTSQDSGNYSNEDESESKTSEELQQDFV
IFNAR1-IgG single alanine mutant K72A (human), sequence (chain, as listed by the source K72A K72A limits assumed): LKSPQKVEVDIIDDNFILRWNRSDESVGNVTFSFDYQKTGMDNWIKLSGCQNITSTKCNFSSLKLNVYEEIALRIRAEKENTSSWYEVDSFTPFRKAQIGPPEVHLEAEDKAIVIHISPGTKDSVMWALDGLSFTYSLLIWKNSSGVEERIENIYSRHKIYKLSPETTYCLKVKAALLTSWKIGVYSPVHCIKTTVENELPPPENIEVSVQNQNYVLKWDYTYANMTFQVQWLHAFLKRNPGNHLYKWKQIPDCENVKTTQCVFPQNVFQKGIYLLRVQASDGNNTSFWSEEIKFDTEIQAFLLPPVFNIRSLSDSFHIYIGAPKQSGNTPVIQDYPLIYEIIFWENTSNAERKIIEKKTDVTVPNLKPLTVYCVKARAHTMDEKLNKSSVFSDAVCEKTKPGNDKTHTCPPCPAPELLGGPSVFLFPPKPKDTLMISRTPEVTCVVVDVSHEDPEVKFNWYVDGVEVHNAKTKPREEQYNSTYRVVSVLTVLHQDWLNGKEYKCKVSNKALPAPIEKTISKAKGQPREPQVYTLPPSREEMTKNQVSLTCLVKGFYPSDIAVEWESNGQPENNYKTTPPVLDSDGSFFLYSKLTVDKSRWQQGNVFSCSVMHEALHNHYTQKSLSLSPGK
IFNAR1-IgG single alanine mutant H244A (human), sequence (chain, as listed by the source H244A H244A limits assumed): as the sequence (chain, as listed by the source K72A K72A limits assumed) above, with A72K, H244A counted along it
IFNAR1-IgG single alanine mutant R74A (human), sequence (chain, as listed by the source R74A R74A limits assumed): as the sequence (chain, as listed by the source K72A K72A limits assumed) above, with A72K, R74A counted along it
IFNAR1-IgG multiple alanine mutant 4, residues 103-111 (… to …) (human), sequence (chain, as listed by the source mutant limits assumed): as the sequence (chain, as listed by the source K72A K72A limits assumed) above, with A72K, E103A, H105A, E107A, E109A, D110A, K111A counted along it
IFNAR1-IgG multiple alanine mutant 2, residues 69-74 (EEIKLR to AAIALA) (human), sequence (chain, as listed by the source mutant limits assumed): as the sequence (chain, as listed by the source K72A K72A limits assumed) above, with E69A, E70A, R74A counted along it
hIFNAR1 ECD-IgG fusion protein (immunoadhesin, pRK5 hIFNAR1-IgG clone 53.65), wild type (human), sequence (chain, as listed by the source limits assumed): as the sequence (chain, as listed by the source K72A K72A limits assumed) above, with A72K counted along it

Row | % Wild type binding of mAbs [4] | % Wild type binding of mAbs [5] | % Wild type binding of mAbs [6] | % Wild type binding of mAbs [7] | % Wild type binding of mAbs [8] | % Wild type binding of mAbs [9] | % Wild type binding of mAbs [10] | % Wild type binding of mAbs [11] | % Wild type binding of mAbs [12] | % Wild type binding of mAbs [13] | % Wild type binding of mAbs [14] | % Wild type binding of mAbs [15] | % Wild type binding of mAbs [16] | % Wild type binding of mAbs [17] | % Wild type binding of mAbs [18] | % Wild type binding of mAbs [19] | % Wild type binding of mAbs [20] | % Wild type binding of mAbs [21] | % Wild type binding of mAbs [22] | % Wild type binding of mAbs [23] | Substance | also measured
1 | 72% | 54% | 5% | 92% | 74% | 34% | 81% | 36% | 7% | 5% | 57% | 90% | 21% | 101% | 105% | 105% | 0% | 84% | 6% | 66% | anti-hIFNAR1 monoclonal antibody 2E1 (hybridoma ATCC HB 12133) | Mean Fluorescence Intensity [1]: 7.6; Mean Fluorescence Intensity [2]: 2.83; Mean Fluorescence Intensity [3]: 7.65; % Wild type binding of mAbs [24]: 87%; % Wild type binding of mAbs [25]: 97%; Kd [26]: 0.066 nM; Mean Fluorescence Intensity [27]: 7.82; EC50 of mAb neutralizing the anti-viral cytopathic effect of 10 units/ml IFNα1 on A549 cells (EMC virus) [28]: 3 µg/mL; EC50 of mAb neutralizing the anti-viral cytopathic effect of 10 units/ml IFNα2/1 on A549 cells (EMC virus) [28]: 3 µg/mL; EC50 of mAb neutralizing the anti-viral cytopathic effect of 10 units/ml IFNα2 on A549 cells (EMC virus) [28]: 1 µg/mL; EC50 of mAb neutralizing the anti-viral cytopathic effect of 10 units/ml IFNα5 on A549 cells (EMC virus) [28]: 1 µg/mL; EC50 of mAb neutralizing the anti-viral cytopathic effect of 10 units/ml IFNα8 on A549 cells (EMC virus) [28]: 1 µg/mL; EC50 of mAb neutralizing the anti-viral cytopathic effect of 10 units/ml IFNβ on A549 cells (EMC virus) [28]: > 30 µg/mL
2 | 72% | 54% | 54% | 96% | 66% | 29% | 80% | 31% | 3% | 3% | 53% | 89% | 18% | 84% | 116% | 81% | 77% | 77% | 0% | 33% | anti-hIFNAR1 monoclonal antibody 2E8 (hybridoma ATCC HB 12130) | Mean Fluorescence Intensity [1]: 7.96; Mean Fluorescence Intensity [2]: 3.16; Mean Fluorescence Intensity [3]: 7.6; % Wild type binding of mAbs [24]: 43%; % Wild type binding of mAbs [25]: 69%; Kd [26]: 0.097 nM; Mean Fluorescence Intensity [27]: 3.27; EC50 of mAb neutralizing the anti-viral cytopathic effect of 10 units/ml IFNα1 on A549 cells (EMC virus) [28]: > 30 µg/mL; EC50 of mAb neutralizing the anti-viral cytopathic effect of 10 units/ml IFNα2/1 on A549 cells (EMC virus) [28]: > 30 µg/mL; EC50 of mAb neutralizing the anti-viral cytopathic effect of 10 units/ml IFNα2 on A549 cells (EMC virus) [28]: > 30 µg/mL; EC50 of mAb neutralizing the anti-viral cytopathic effect of 10 units/ml IFNα5 on A549 cells (EMC virus) [28]: > 30 µg/mL; EC50 of mAb neutralizing the anti-viral cytopathic effect of 10 units/ml IFNα8 on A549 cells (EMC virus) [28]: > 30 µg/mL; EC50 of mAb neutralizing the anti-viral cytopathic effect of 10 units/ml IFNβ on A549 cells (EMC virus) [28]: > 30 µg/mL
3 | 64% | 65% | 69% | 94% | 88% | 55% | 79% | 53% | 49% | 49% | 0% | 89% | 0% | 77% | 93% | 101% | 105% | 90% | 64% | 39% | anti-hIFNAR1 monoclonal antibody 2H6 (hybridoma ATCC HB 12131) | % Wild type binding of mAbs [24]: 68%; % Wild type binding of mAbs [25]: 48%; Kd [26]: 3.12 nM; EC50 of mAb neutralizing the anti-viral cytopathic effect of 10 units/ml IFNα1 on A549 cells (EMC virus) [28]: > 30 µg/mL; EC50 of mAb neutralizing the anti-viral cytopathic effect of 10 units/ml IFNα2/1 on A549 cells (EMC virus) [28]: > 30 µg/mL; EC50 of mAb neutralizing the anti-viral cytopathic effect of 10 units/ml IFNα2 on A549 cells (EMC virus) [28]: > 30 µg/mL; EC50 of mAb neutralizing the anti-viral cytopathic effect of 10 units/ml IFNα5 on A549 cells (EMC virus) [28]: > 30 µg/mL; EC50 of mAb neutralizing the anti-viral cytopathic effect of 10 units/ml IFNα8 on A549 cells (EMC virus) [28]: > 30 µg/mL; EC50 of mAb neutralizing the anti-viral cytopathic effect of 10 units/ml IFNβ on A549 cells (EMC virus) [28]: > 30 µg/mL
4 | 91% | 82% | 71% | 99% | 93% | 66% | 83% | 72% | 61% | 70% | 84% | 110% | 67% | 110% | 83% | 81% | 110% | 100% | 75% | 34% | anti-hIFNAR1 monoclonal antibody 5A8 (hybridoma ATCC HB 12129) | % Wild type binding of mAbs [24]: 80%; % Wild type binding of mAbs [25]: 109%; Kd [26]: 0.174 nM; EC50 of mAb neutralizing the anti-viral cytopathic effect of 10 units/ml IFNα1 on A549 cells (EMC virus) [28]: > 30 µg/mL; EC50 of mAb neutralizing the anti-viral cytopathic effect of 10 units/ml IFNα2/1 on A549 cells (EMC virus) [28]: > 30 µg/mL; EC50 of mAb neutralizing the anti-viral cytopathic effect of 10 units/ml IFNα2 on A549 cells (EMC virus) [28]: > 30 µg/mL; EC50 of mAb neutralizing the anti-viral cytopathic effect of 10 units/ml IFNα5 on A549 cells (EMC virus) [28]: > 30 µg/mL; EC50 of mAb neutralizing the anti-viral cytopathic effect of 10 units/ml IFNα8 on A549 cells (EMC virus) [28]: > 30 µg/mL; EC50 of mAb neutralizing the anti-viral cytopathic effect of 10 units/ml IFNβ on A549 cells (EMC virus) [28]: > 30 µg/mL
